Experimental data from the DeepSol protein solubility set.

Test: soluble on expression in E. coli; label from the status in PepcDB or PDB records

| Sequence | soluble on expression in E. coli |
| --- | --- |
| MDDNQIINLFFQRNEDAINAVDEKYGSKLNALAANILQSREDGLECVNDMYMKAWNSIPPARPEYLFAFLATSARNIAIDMIRKNNAGKRQAKVVELTKELEECIGDGGLQTHLDKEDIGEMLSHFLETVDKNKRIIFLRRYWYSDSIKDISERMQMSESAVKVTLHRTRKELRKYLESEGLYL | not soluble |
| RPQTTNSWQNSEIEGIDIMLAIDVSTSMLAEDLKPNRLEAAKDVAAEFINGRPNDNIGITLFAGESFTQCPLTVDHAVLLNLFQGIQCDIIEDGTAVGMGIANAVTRLKDSKAKSKVIILLTDGTNNKGDISPLTAAEIAKSFGIRVYTIGVGTNGMAPYPVRVGGTTQYINTPVEIDEKTLTQIAGTTDGNYFRATSNSKLKEVYEEI | not soluble |
| MSLTKIVIIGGVAGGASAAARARRLSEDAEIIMFERGPYVSFANCGLPYHIGGDIKERSNLLLQTPESFLARFNVDVRTMNEVLRINRAAKTITVRNLLDQSEYDENYDFLLLSPGAGPVIPPIPGIQNPLTHSLRNIPDMDKIIQTLQMNKPEHATVVGGGFIGLEMMEAFHHLGIKTTLIEMADQVMTPVDREMAGFAHAEIRAKGIDLRLGAALKSVEYRPAATLPSAESGESLEHKHVEGELDLLLSNGDTLTTDILIMAIGVRPETKLAAEAGLQLGELGGIWVNEQMQTSDPAIYAVGDAVEEKDFVTGKQTLVPLAGPANRQGRMAADNMLGRNESYQGTQGTAICKIFDLAVASTGKNEKQLKREGIAYEKVYVHTASHASYYPGAEVVSFKMLFDPQTGKIFGAQAVGKDGIDKRIDVMAVAQRAGMTVEQLQHLELTYAPPFGSAKDVINQAAFVATNLIKGDAKAIHFDEIDNLTDEQVLLDVRNPMELQNMGYLPGAINIPVDQLRQHMNELPKDKEIVIYCQVGLRGNVAYRQLVNNGFKARNLIGGYRTYKFAKAEGHHHHHH | soluble |
| MSLSATNTNLHDLLARRIPGHALEQPFYTSPEIYQQDLEHIFYREWLYAIPACQLVKPGSYATLRIGAYNIVIVKGRDGEIRAFHNSCRHRSSIVCKAREGQVAKLVCPYHQWTYDLDGKLIWANSMGPDFDPTQHGLRSVALRNLKGLIYICLADTPPDFEAFARAAEPYLGVHDLQDAKVAYSSSIIEKGNWKLVWENNRECYHCSGNHPALCRSFPLDPEVAGVSADGSISQRIQDHFDACAAAGAPAQFLLGGDGQFRLARMPLQETAVSYTMDGKAAVARQLGRVAKPDAGSLLVFHYPSTWNHFLPDHSLTFRVTPISPTETEVTTTWLVHKDAVEGVDYDLQHLTEVWIATNDEDREIVETNQEGIFSPAYIPGPYSPDWESGVIQFIDWYAAWMERSLAPSRMAAEEGHHHHHH | soluble |
| GPGSMSSCTHPTSALFVDRQNGRTTCTICGDVVTTDQYELDPIFAQGGRQPASGGGLRGLAGSFRPATSYKGTHTGVIHSHSRPTIDKARREMLNISRQLEISEDTVERALGIYKVALNLNAVSGTRPSVLCACLYAACRRERTSHVIYDFSEINGEDPHTILSQMKYICHATHTEVPVIDPSCYVQRFAEQMDLGPQTTDVVVCALKVLRAMQDDWISCGRRPMGVCAAALLVACYVFGISRTPEQVCGMVRLTSNTIGKRLTEFAATPTARLENIDDYQPSHETLPPAFNDSSRKSTEEDVHASMRELSAIFYELVSEAKTSQPATPERCDKWRRFIMKHCELEGITPLEENLDLKGLPPAQQLHILGLPHTKPIPLEEVARSVKREEHRLLVKREASLQNGSDAGGSMSGARQGAVAGLLNNADVSSNGIPLYLLPDESLASSLAQASPAMGYADDGGMHSSSAAVGAASMDSPEQLRWMTDEYTRLLNSNAEVMHLRNDFDFADEDDANGAGGSSGGGAVAPPVSHPTQNQPFSCGLSQLRGGSPPPGTPAEEDPFGFFDRDDEGTRLALEEILYDRERRHALPWEFLVLPRVEEDDCTDILSYLVLDNEERLRRERIGVSLYGEKWKRGRARTDEEIQKLEEARASKRRRRSVIAEPAVDVPTAMERALRGRGAGTVNISQIGELLPGMLEFLEDEPQADWD | not soluble |
| MGSDKIHHHHHHMKTFHNEEIYIKTDNFSDSIFKENTMFFDIETTGFSPVKAIVYMIGCARRIKNRIVIDQYFAESVDDEAAVIEAFAGSLSGCSTIISFNGVGFDIPFLKNKYKKYKQEDPFCNVQILDIFKELSPIKPLLCLENYKQKSIEAFLGIDREDKYSGGELINVYYEYLAQKDDEKLSLLLTHNYEDVLGMTKLLSILSYKECIHGIADITGVSVNPYTAYDGSLMNELIISFENKFSVPKSVSFHDNDIYLTIGTTKSYVRAEIFEGEMRHFYSDYKNYYYLPKEDMAIHKSVAAYVDHEYREKCKAYNCYVRKTGTFIRQYSDFMKPEFRFDIKDKYSYFLLTEDFINSKQMVLSYVKHITDHLFNL | not soluble |
| MGSIISRTIPGQGHGNQYYPGVQWDVRDSAWRYVTILDLPFSLVFDTLLLPIDIHHGPYELEHHHHHH | not soluble |
| MASYPCHQHASAFDQAARSRGHNNRRTALRPRRQQEATEVRPEQKMPTLLRVYIDGPHGMGKTTTTQLLVALGSRDDIVYVPEPMTYWRVLGASETIANIYTTQHRLDQGEISAGDAAVVMTSAQITMGMPYAVTDAVLAPHIGGEAGSSHAPPPALTLIFDRHPIAALLCYPAARYLMGSMTPQAVLAFVALIPPTLPGTNIVLGALPEDRHIDRLAKRQRPGERLDLAMLAAIRRVYGLLANTVRYLQCGGSWREDWGQLSGTAVPPQGAEPQSNAGPRPHIGDTLFTLFRAPELLAPNGDLYNVFAWALDVLAKRLRSMHVFILDYDQSPAGCRDALLQLTSGMVQTHVTTPGSIPTICDLARTFAREMGEAN | soluble |
| MGSDKIHHHHHHMKRLSPEVFKVPIDRIRNGYYSDIYFINYVKVLKRDSRHPRVYYQFFPRKDAVICGIDEALAILKFCTGYYKDEEKARELFEEILKLDKEMQAASVEMDVQKILELTQKKWDLRLKLNDLWVDKWDEIEVHALYDGEEAKEGEPIMTIEGDPTYFGYLETVLLGVIARATSTATAVKKVVKAARGKPVLFFSARFDHYWVQATDGYAALKAGAFGVSTDANADYWGVKSMGTMPHALIACYDGKTEDAAIAFDRHMEEDVNRIVLVDWDNDVIGTTFRVIEKFYEYVMKKPFKLGVTDPSPIIGPGKNKIWGVRFDTSGNLRDKSVVPKDESSFGVCPELVWRARQEFDKVGLRDLKIVVSGGFDEKKIDLFERLGVPADAYGVGSRLLREKVDITADIVEVNGRHCAKVGRYKIENPRLKKVGKRYWEEE | not soluble |
| MTSGANSSGSYLPSEIRSSKIDDNYLKELNEDLKLRKQELLEMLKPLEDKNNLLFQKLMSNLEEKQRSLQIMRQIMAGKGCEESSVMELLKEAEEMKQNLERKNKMLRKEMEMLWNKTFEAEELSDQQKAPQTKNKADLQDGKEKQQRKMEWVKYQEQNNILQNDFHGKVIELRIEALKNYQKANDLKLSLYLQQNFEPMQAFLNLPGSQGIRIV | not soluble |
| MSLNDSFNPNENNPAEPSMELVVNGSGINVRSDAGIEHRVVRKASNGDRYKVLAVKNGWYKVGNGEWIFYDPSWIKINYNVPKEEVQKPKEEVQKPKDDITGGWFEGHIRKLNSLGIMQGEGNGVFAPYRNVTRAEFAKLISNALKLPEGNKSFVDINEAHPSLHDGIKRCASAGIINGRGEGIFDPNSPITREEVSIMIDKALRYKGITGELVALPFTDKHLITYKESVQRLYSLKVVNGIGNNEFDPRGTATRGQAAAFIVKMLDSMQKEGHHHHHH | soluble |
| MHKNLFHWLMERGYQVLVEKEVAITLELPFEHLATLEEIGHRAQLAIVIGGDGNMLGRARVLAKYDIPLIGINRGNLGFLTDIDPKNAYSQLEACLERGEFFVEERFLLEAKIERASEIVSTSNAVNEAVIHPAKIAHMIDFHVYINDKFAFSQRSDGLIVSTPTGSTAYSLSAGGPILTPNLNAIALVPMFPHTLTSRPLVVDGDSKISIRFAEHNTSQLEVGCDSQITLPFTPDDVVHIQKSEHKLRLLHLKIIIITMC | soluble |
| MKNRIIAAGVIAASILSYSSSSFAQTKTFPDVQTGHWAEDSINYLAEKGAVTGNEKGMFEPGKEITRAEAATMMAKILNLPIDKNAKPSYADSQKHWATPIIAAVEKAGVVKGTGNGFEPDGKIDRVSMASLLVEAYKLESKVNGTPATKFKDLETLNWGKEKANILVELGISVGTGDKWEPKKILTKAEAAQFIKKADSLKVGNPLVEKVVIIDPGHGGFDPGNPGQGVEESKIVFDTSLRLQKLLEKNTPLKALLTREENGNPGSNKNESLANRVKFGQENNADIFVSIHANSSEKHDGHGTETYYYKKSKRGEETQIEKDSEVLAKKIQNRVVEALHTRDRKIKDDHSLYVVNNNTVPAVLTELAFIDNDIDNGKLATESGRQIAAEAVYAGILDYYEWKGFDVSKYRLAK | not soluble |
| MNALLSNPFKERLRKGEVQIGLWLSSTTAYMAEIAATSGYDWLLIDGEHAPNTIQDLYHQLQAVAPYASQPVIRPVEGSKPLIKQVLDIGAQTLLIPMVDTAEQARQVVSATRYPPYGERGVGASVARAARWGRIENYMAQVNDSLCLLVQVESKTALDNLDEILDVEGIDGVFIGPADLSASLGYPDNAGHPEVQRIIETSIRRIRAAGKAAGFLAVAPDMAQQCLAWGANFVAVGVDTMLYSDALDQRLAMFKSGKNGPRIKGSY | soluble |
| MSMSDINKNSELIFIPAPGIGHLASALEFAKLLTNHDKNLYITVFCIKFPGMPFADSYIKSVLASQPQIQLIDLPEVEPPPQELLKSPEFYILTFLESLIPHVKATIKTILSNKVVGLVLDFFCVSMIDVGNEFGIPSYLFLTSNVGFLSLMLSLKNRQIEEVFDDSDRDHQLLNIPGISNQVPSNVLPDACFNKDGGYIAYYKLAERFRDTKGIIVNTFSDLEQSSIDALYDHDEKIPPIYAVGPLLDLKGQPNPKLDQAQHDLILKWLDEQPDKSVVFLCFGSMGVSFGPSQIREIALGLKHSGVRFLWSNSAEKKVFPEGFLEWMELEGKGMICGWAPQVEVLAHKAIGGFVSHCGWNSILESMWFGVPILTWPIYAEQQLNAFRLVKEWGVGLGLRVDYRKGSDVVAAEEIEKGLKDLMDKDSIVHKKVQEMKEMSRNAVVDGGSSLISVGKLIDDITGSN | soluble |
| MVDLNKYKRFVETHGMKIPVLSLEYEYQAYLKLGRVEKAETLRKWLNERKG | not soluble |
| MTYETISVRMNRSDRNIRWGFSVRQQADGLIIDRVEAESLSDKAGVKHNDKVDQINGRSTRGLDAASANRLIDDSFNEVRLSLQRFVTSHTTLPWTLNEKDNKMVVEEMKPGFGTGFGSGFGSSNFVNSSFNQNQNNFGSHFGTGSGVNQRNITNTNTSSSNHQSSTFHSSSHQSSGNYGSGGFSPSSHHNIPIRHSPAPPFTTSNSSYNNIKKSTDNTILPGSANYNPNNSSNYNSVPTGFGASSGGYGGSGGFKGHSNGSAIPAQAPPTSYSYNNGATSQPYGAGSGGTPLNQMTFINTSPAPGANGAYGAQCGLSPSKVFYHSPSGRSRNELSPGAAVHHLQYNSPMNLYSSEATAEQLYQQTGAVPEGPVPHDKSPAYLTSETRKLIEEEARGRFQRGKSPSSQSSCFKRISHAVGADH | not soluble |
| MTLTDISLAQAFISIPQDVIALDLSNNLLGSKSCVDLLVNIADCIPAGVTSLDLSSNGLRLTQVSLVTPKHVTSLNLCFNPLHEISIDGLEWLKDSLAHIQIIYLSYDMVNNMSREQRQAFRAVIPNIQTIILVDKNGKEIGPSHTAKIANLISELGGGNPEVPSLEHHHHHH | not soluble |
| MSASFSAPRLRPRQLSAGDLVEESLLDPANDYLRIVRARQPGMDLRQWIAAAGAGLRDSLLRHGGILFRGFAVDGAEGFSQAVQSFSPNMLDYLERAAARQEVAHRVFTSTEFSPDGWIPPHHEMSYSHNWPSYIHFYCQTPPATQGRTPLADERRVSARIPEAIRQRFLRHGVCYVRNYGPEIDLTWQEGFQTDSRAEVEAYCRQTGTQWTWLDDQRLNTRQVRQAMVRHPLSGETLWFNHAHMFHVSNMPPALARALLDEVGEQGLPRNAYYGDGSPIEAEVLDTIRAAYREETRAFAWERGDVLMLDNFISVHGREPYTGERKVLVAMTDLHVHQP | not soluble |
